Where a chain is given by its changes, count along the chain named.
B1: H183/L072 VL Q27S (antibody, name in Kabat numbering, V domains shown)
VH: QVQLVESGGGLVQPGRSLRLSCAASGFTFSNAWMHWVRQAPGKGLEWVAQIKDKGNAYAAYYAPSVKGRFTISRDDSKNSIYLQMNSLKTEDTAVYYCHYVHYASASTVLPAFGVDAWGQGTTVTVSS
VL: DIVMTQSPLSLPVTPGEPASISCQASSELVHMNRNTYLHWYQQKPGQAPRLLIYKVSNRFPGVPDRFSGSGSGTDFTLKISRVEAEDVGVYYCAQGTSVPFTFGQGTKLEIK
notes: Dual-Ig
B2: H183/L072 VL Q27T (antibody, name in Kabat numbering, V domains shown)
VH: B1 VH
VL: B1 VL with S27T
notes: Dual-Ig
B3: H183/L072 VL Q27V (antibody, name in Kabat numbering, V domains shown)
VH: B1 VH
VL: B1 VL with S27V
notes: Dual-Ig
B4: H183/L072 VL Q27W (antibody, name in Kabat numbering, V domains shown)
VH: B1 VH
VL: B1 VL with S27W
notes: Dual-Ig
B5: H183/L072 VL Q27Y (antibody, name in Kabat numbering, V domains shown)
VH: B1 VH
VL: B1 VL with S27Y
notes: Dual-Ig
B6: H183/L072 VL Q90A (antibody, name in Kabat numbering, V domains shown)
VH: B1 VH
VL: B1 VL with S27Q, Q95A
notes: Dual-Ig
B7: H183/L072 VL Q90D (antibody, name in Kabat numbering, V domains shown)
VH: B1 VH
VL: B1 VL with S27Q, Q95D
notes: Dual-Ig
B8: H183/L072 VL Q90E (antibody, name in Kabat numbering, V domains shown)
VH: B1 VH
VL: B1 VL with S27Q, Q95E
notes: Dual-Ig
B9: H183/L072 VL Q90F (antibody, name in Kabat numbering, V domains shown)
VH: B1 VH
VL: B1 VL with S27Q, Q95F
notes: Dual-Ig
B10: H183/L072 VL Q90G (antibody, name in Kabat numbering, V domains shown)
VH: B1 VH
VL: B1 VL with S27Q, Q95G
notes: Dual-Ig
B11: H183/L072 VL Q90H (antibody, name in Kabat numbering, V domains shown)
VH: B1 VH
VL: B1 VL with S27Q, Q95H
notes: Dual-Ig
B12: H183/L072 VL Q90I (antibody, name in Kabat numbering, V domains shown)
VH: B1 VH
VL: B1 VL with S27Q, Q95I
notes: Dual-Ig
B13: H183/L072 VL Q90K (antibody, name in Kabat numbering, V domains shown)
VH: B1 VH
VL: B1 VL with S27Q, Q95K
notes: Dual-Ig
B14: H183/L072 VL Q90L (antibody, name in Kabat numbering, V domains shown)
VH: B1 VH
VL: B1 VL with S27Q, Q95L
notes: Dual-Ig
B15: H183/L072 VL Q90M (antibody, name in Kabat numbering, V domains shown)
VH: B1 VH
VL: B1 VL with S27Q, Q95M
notes: Dual-Ig
B16: H183/L072 VL Q90N (antibody, name in Kabat numbering, V domains shown)
VH: B1 VH
VL: B1 VL with S27Q, Q95N
notes: Dual-Ig
B17: H183/L072 VL Q90P (antibody, name in Kabat numbering, V domains shown)
VH: B1 VH
VL: B1 VL with S27Q, Q95P
notes: Dual-Ig
B18: H183/L072 VL Q90R (antibody, name in Kabat numbering, V domains shown)
VH: B1 VH
VL: B1 VL with S27Q, Q95R
notes: Dual-Ig
B19: H183/L072 VL Q90S (antibody, name in Kabat numbering, V domains shown)
VH: B1 VH
VL: B1 VL with S27Q, Q95S
notes: Dual-Ig
B20: H183/L072 VL Q90T (antibody, name in Kabat numbering, V domains shown)
VH: B1 VH
VL: B1 VL with S27Q, Q95T
notes: Dual-Ig
B21: H183/L072 VL Q90V (antibody, name in Kabat numbering, V domains shown)
VH: B1 VH
VL: B1 VL with S27Q, Q95V
notes: Dual-Ig
B22: H183/L072 VL Q90W (antibody, name in Kabat numbering, V domains shown)
VH: B1 VH
VL: B1 VL with S27Q, Q95W
notes: Dual-Ig
B23: H183/L072 VL R29A (antibody, name in Kabat numbering, V domains shown)
VH: B1 VH
VL: B1 VL with S27Q, R34A
notes: Dual-Ig
B24: H183/L072 VL R29D (antibody, name in Kabat numbering, V domains shown)
VH: B1 VH
VL: B1 VL with S27Q, R34D
notes: Dual-Ig
B25: H183/L072 VL R29E (antibody, name in Kabat numbering, V domains shown)
VH: B1 VH
VL: B1 VL with S27Q, R34E
notes: Dual-Ig
B26: H183/L072 VL R29F (antibody, name in Kabat numbering, V domains shown)
VH: B1 VH
VL: B1 VL with S27Q, R34F
notes: Dual-Ig
B27: H183/L072 VL R29G (antibody, name in Kabat numbering, V domains shown)
VH: B1 VH
VL: B1 VL with S27Q, R34G
notes: Dual-Ig
B28: H183/L072 VL R29H (antibody, name in Kabat numbering, V domains shown)
VH: B1 VH
VL: B1 VL with S27Q, R34H
notes: Dual-Ig
B29: H183/L072 VL R29I (antibody, name in Kabat numbering, V domains shown)
VH: B1 VH
VL: B1 VL with S27Q, R34I
notes: Dual-Ig
B30: H183/L072 VL R29K (antibody, name in Kabat numbering, V domains shown)
VH: B1 VH
VL: B1 VL with S27Q, R34K
notes: Dual-Ig
B31: H183/L072 VL R29L (antibody, name in Kabat numbering, V domains shown)
VH: B1 VH
VL: B1 VL with S27Q, R34L
notes: Dual-Ig
B32: H183/L072 VL R29M (antibody, name in Kabat numbering, V domains shown)
VH: B1 VH
VL: B1 VL with S27Q, R34M
notes: Dual-Ig
B33: H183/L072 VL R29N (antibody, name in Kabat numbering, V domains shown)
VH: B1 VH
VL: B1 VL with S27Q, R34N
notes: Dual-Ig
B34: H183/L072 VL R29P (antibody, name in Kabat numbering, V domains shown)
VH: B1 VH
VL: B1 VL with S27Q, R34P
notes: Dual-Ig
B35: H183/L072 VL R29Q (antibody, name in Kabat numbering, V domains shown)
VH: B1 VH
VL: B1 VL with S27Q, R34Q
notes: Dual-Ig
B36: H183/L072 VL R29S (antibody, name in Kabat numbering, V domains shown)
VH: B1 VH
VL: B1 VL with S27Q, R34S
notes: Dual-Ig
B37: H183/L072 VL R29T (antibody, name in Kabat numbering, V domains shown)
VH: B1 VH
VL: B1 VL with S27Q, R34T
notes: Dual-Ig
B38: H183/L072 VL R29V (antibody, name in Kabat numbering, V domains shown)
VH: B1 VH
VL: B1 VL with S27Q, R34V
notes: Dual-Ig
B39: H183/L072 VL R29W (antibody, name in Kabat numbering, V domains shown)
VH: B1 VH
VL: B1 VL with S27Q, R34W
notes: Dual-Ig
B40: H183/L072 VL R29Y (antibody, name in Kabat numbering, V domains shown)
VH: B1 VH
VL: B1 VL with S27Q, R34Y
notes: Dual-Ig
B41: H183/L072 VL R54A (antibody, name in Kabat numbering, V domains shown)
VH: B1 VH
VL: B1 VL with S27Q, R59A
notes: Dual-Ig
B42: H183/L072 VL R54D (antibody, name in Kabat numbering, V domains shown)
VH: B1 VH
VL: B1 VL with S27Q, R59D
notes: Dual-Ig
B43: H183/L072 VL R54E (antibody, name in Kabat numbering, V domains shown)
VH: B1 VH
VL: B1 VL with S27Q, R59E
notes: Dual-Ig
B44: H183/L072 VL R54F (antibody, name in Kabat numbering, V domains shown)
VH: B1 VH
VL: B1 VL with S27Q, R59F
notes: Dual-Ig
B45: H183/L072 VL R54G (antibody, name in Kabat numbering, V domains shown)
VH: B1 VH
VL: B1 VL with S27Q, R59G
notes: Dual-Ig
B46: H183/L072 VL R54H (antibody, name in Kabat numbering, V domains shown)
VH: B1 VH
VL: B1 VL with S27Q, R59H
notes: Dual-Ig

Molecular target: T1, Human CD137 ECD (human)
T1 construct: entry includes C-terminal His-tag and biotin acceptor peptide; also called human CD137 extracellular domain; 4-1BB
T1 sequence (chain, as listed by the source limits assumed): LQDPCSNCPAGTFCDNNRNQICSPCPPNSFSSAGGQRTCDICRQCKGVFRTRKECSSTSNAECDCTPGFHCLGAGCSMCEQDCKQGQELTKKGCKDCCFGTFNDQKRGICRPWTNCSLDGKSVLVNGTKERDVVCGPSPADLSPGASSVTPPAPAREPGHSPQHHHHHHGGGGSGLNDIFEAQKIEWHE
Test: Biacore SPR, vs parent H183/L072

Row | Binder | fold change of affinity [fold]
1 | B1 | 0.8
2 | B2 | 0.9
3 | B3 | 0.8
4 | B4 | 0.5
5 | B5 | 0.7
6 | B6 | 0
7 | B7 | 0
8 | B8 | 0
9 | B9 | 0
10 | B10 | 0
11 | B11 | 0.2
12 | B12 | 0
13 | B13 | 0
14 | B14 | 0
15 | B15 | 0
16 | B16 | 0
17 | B17 | 0
18 | B18 | 0
19 | B19 | 0
20 | B20 | 0
21 | B21 | 0
22 | B22 | 0
23 | B23 | 0.8

Row | Binder | fold change of affinity [fold]
24 | B24 | 0.3
25 | B25 | 0.4
26 | B26 | 0.7
27 | B27 | 1.1
28 | B28 | 0.8
29 | B29 | 0.3
30 | B30 | 1.1
31 | B31 | 0.9
32 | B32 | 0.9
33 | B33 | 0.9
34 | B34 | 0.2
35 | B35 | 0.9
36 | B36 | 0.9
37 | B37 | 0.8
38 | B38 | 0.3
39 | B39 | 0.6
40 | B40 | 0.6
41 | B41 | 0.9
42 | B42 | 0.3
43 | B43 | 0.6
44 | B44 | 0.3
45 | B45 | 0.9
46 | B46 | 0.6

From US20210388087A1 (Chugai, published 2021)
